Positions count from the first letter of the chain named.
B1: NRC3_wobSeed28_DR1_C20G_o1 (dsDNA)
DNA 1: GCCCTACTGGGCCAAAGGTGATTGATTCCAATGCTCGCGATTGACAGCGTAGAATGAAGG
DNA 2: CCTTCATTCTACGCTGTCAATCGCGAGCATTGGAATCAATCACCTTTGGCCCAGTAGGGC
B2: NRC3_wobSeed66_DR2_C13G_o1 (dsDNA)
DNA 1: GCAATACAGGGTGACTAGGCCAGAGTAGGTACGAATGCGATTGACAGCGTAGAATGAAGG
DNA 2: CCTTCATTCTACGCTGTCAATCGCATTCGTACCTACTCTGGCCTAGTCACCCTGTATTGC
B3: NRC3_wobSeed65_DR2_T24A_o1 (dsDNA)
DNA 1: GCATATGTAGGTTATCGGGTCATACAGTTTGCGCATGCGATTGACAGCGTAGAATGAAGG
DNA 2: CCTTCATTCTACGCTGTCAATCGCATGCGCAAACTGTATGACCCGATAACCTACATATGC
B4: NRC3_wobSeed117_DR4_G10C_o1 (dsDNA)
DNA 1: GCCGTCAAACTTCAACTAAGGTAACGTAAAGCACGCGCGATTGACAGCGTAGAATGAAGG
DNA 2: CCTTCATTCTACGCTGTCAATCGCGCGTGCTTTACGTTACCTTAGTTGAAGTTTGACGGC
B5: NRC3_wobSeed136_DR5_A14G_o1 (dsDNA)
DNA 1: GCTAGCCTAGGTCGTTCAGGGGCCAGTATAGAAAGCGCGATTGACAGCGTAGAATGAAGG
DNA 2: CCTTCATTCTACGCTGTCAATCGCGCTTTCTATACTGGCCCCTGAACGACCTAGGCTAGC
B6: NRC3_wobSeed116_DR4_G11A_o1 (dsDNA)
DNA 1: GCAGAATGAGATTACCAAAGATCAGGGAAACGCTTGGCGATTGACAGCGTAGAATGAAGG
DNA 2: CCTTCATTCTACGCTGTCAATCGCCAAGCGTTTCCCTGATCTTTGGTAATCTCATTCTGC
B7: NRC3_wobSeed110_DR4_A18T_o1 (dsDNA)
DNA 1: GCTCTGCTAGGTCAACGTTGGTCAGCTAATCTGCTAGCGATTGACAGCGTAGAATGAAGG
DNA 2: CCTTCATTCTACGCTGTCAATCGCTAGCAGATTAGCTGACCAACGTTGACCTAGCAGAGC
B8: NRC3_random_hg19_497_o1 (dsDNA)
DNA 1: GCGGGTTTAGAGATGATTTGCTGTGACAGTGTTGAGGCGATTGACAGCGTAGAATGAAGG
DNA 2: CCTTCATTCTACGCTGTCAATCGCCTCAACACTGTCACAGCAAATCATCTCTAAACCCGC
B9: NRC3_wobSeed104_DR4_A14G_o1 (dsDNA)
DNA 1: GCTCTTGTAGATCGATAGAGGTTAAGAAAGTGCGCTGCGATTGACAGCGTAGAATGAAGG
DNA 2: CCTTCATTCTACGCTGTCAATCGCAGCGCACTTTCTTAACCTCTATCGATCTACAAGAGC
B10: NRC3_wobSeed104_DR4_G20A_o1 (dsDNA)
DNA 1: B9 DNA 1 with G14A, G20A
DNA 2: B9 DNA 2 with C41T, C47T
B11: NRC3_wobSeed77_DR3_A14T_o1 (dsDNA)
DNA 1: GCACTTACGGGTCTACGAGGTTATAGCACGCGTATAGCGATTGACAGCGTAGAATGAAGG
DNA 2: CCTTCATTCTACGCTGTCAATCGCTATACGCGTGCTATAACCTCGTAGACCCGTAAGTGC
B12: NRC3_wobSeed77_DR3_G11C_o1 (dsDNA)
DNA 1: B11 DNA 1 with G11C, T14A
DNA 2: B11 DNA 2 with A47T, C50G
B13: NRC3_wobSeed34_DR1_G14T_o1 (dsDNA)
DNA 1: GCATCGAAAGGTCTAAGGTGAGTATACCCACCCGAAGCGATTGACAGCGTAGAATGAAGG
DNA 2: CCTTCATTCTACGCTGTCAATCGCTTCGGGTGGGTATACTCACCTTAGACCTTTCGATGC
B14: NRC3_wobSeed34_DR1_G14C_o1 (dsDNA)
DNA 1: B13 DNA 1 with T14C
DNA 2: B13 DNA 2 with A47G
B15: NRC3_wobSeed141_DR5_C13G_o1 (dsDNA)
DNA 1: GCAGTCAAAGTTGAGGACGAGGTAACGTAAAGCACGGCGATTGACAGCGTAGAATGAAGG
DNA 2: CCTTCATTCTACGCTGTCAATCGCCGTGCTTTACGTTACCTCGTCCTCAACTTTGACTGC
B16: NRC3_random_hg19_203_o1 (dsDNA)
DNA 1: GCGATGTAACAATGCAGGGTGGTCTTGGTCTTTGGCGCGATTGACAGCGTAGAATGAAGG
DNA 2: CCTTCATTCTACGCTGTCAATCGCGCCAAAGACCAAGACCACCCTGCATTGTTACATCGC
B17: NRC3_wobSeed73_DR3_A18T_o1 (dsDNA)
DNA 1: GCCAAACTAGGTCACAGTGGTCAAAGTCCGTGCGTAGCGATTGACAGCGTAGAATGAAGG
DNA 2: CCTTCATTCTACGCTGTCAATCGCTACGCACGGACTTTGACCACTGTGACCTAGTTTGGC
B18: NRC3_random_hg19_368_o1 (dsDNA)
DNA 1: GCTAAGAAACTCAGTCAACATGATATCTATGGCTAAGCGATTGACAGCGTAGAATGAAGG
DNA 2: CCTTCATTCTACGCTGTCAATCGCTTAGCCATAGATATCATGTTGACTGAGTTTCTTAGC
B19: NRC3_random_hg19_129_o1 (dsDNA)
DNA 1: GCGAAGTTTAGAAACTTGCCCTAAGTCACCTAACTAGCGATTGACAGCGTAGAATGAAGG
DNA 2: CCTTCATTCTACGCTGTCAATCGCTAGTTAGGTGACTTAGGGCAAGTTTCTAAACTTCGC
B20: NRC3_wobSeed138_DR5_C7T_o1 (dsDNA)
DNA 1: GCGATATAGGGTCAGCTAGAGGCCAGAGTATGGAAAGCGATTGACAGCGTAGAATGAAGG
DNA 2: CCTTCATTCTACGCTGTCAATCGCTTTCCATACTCTGGCCTCTAGCTGACCCTATATCGC
B21: NRC3_wobSeed140_DR5_T15A_o1 (dsDNA)
DNA 1: GCAGAATGAGGTTAAACGTAGATCAGGGAAGAAAGTGCGATTGACAGCGTAGAATGAAGG
DNA 2: CCTTCATTCTACGCTGTCAATCGCACTTTCTTCCCTGATCTACGTTTAACCTCATTCTGC
B22: NRC3_random_hg19_431_o1 (dsDNA)
DNA 1: GCAGCCATATGCAAATGAGTACATCCTGTGTGATTCGCGATTGACAGCGTAGAATGAAGG
DNA 2: CCTTCATTCTACGCTGTCAATCGCGAATCACACAGGATGTACTCATTTGCATATGGCTGC
B23: NRC3_random_hg19_104_o1 (dsDNA)
DNA 1: GCTGTAATCACGGTGTGTGAACTACTCATATCGAGTGCGATTGACAGCGTAGAATGAAGG
DNA 2: CCTTCATTCTACGCTGTCAATCGCACTCGATATGAGTAGTTCACACACCGTGATTACAGC
B24: NRC3_random_hg19_256_o1 (dsDNA)
DNA 1: GCAGGAGAAACCCACGCTGGTGTCATCACAGGTTCAGCGATTGACAGCGTAGAATGAAGG
DNA 2: CCTTCATTCTACGCTGTCAATCGCTGAACCTGTGATGACACCAGCGTGGGTTTCTCCTGC
B25: NRC3_wobSeed29_DR1_A14C_o1 (dsDNA)
DNA 1: GCGCTTACGGGTCCAAGGTTATAGCATGAATAGAATGCGATTGACAGCGTAGAATGAAGG
DNA 2: CCTTCATTCTACGCTGTCAATCGCATTCTATTCATGCTATAACCTTGGACCCGTAAGCGC
B26: NRC3_wobSeed113_DR4_A24C_o1 (dsDNA)
DNA 1: GCATATGTAGGTTAGCTGGGGTCCTTCAGACTAGGCGCGATTGACAGCGTAGAATGAAGG
DNA 2: CCTTCATTCTACGCTGTCAATCGCGCCTAGTCTGAAGGACCCCAGCTAACCTACATATGC
B27: NRC3_wobSeed40_DR1_C13T_o1 (dsDNA)
DNA 1: GCTAGCCTAGGTTATGGGCCAGTATACCACGCGAACGCGATTGACAGCGTAGAATGAAGG
DNA 2: CCTTCATTCTACGCTGTCAATCGCGTTCGCGTGGTATACTGGCCCATAACCTAGGCTAGC
B28: NRC3_random_hg19_163_o1 (dsDNA)
DNA 1: GCCAGTGAGCCGAGATCATGCCACTGCACTCCAGCCGCGATTGACAGCGTAGAATGAAGG
DNA 2: CCTTCATTCTACGCTGTCAATCGCGGCTGGAGTGCAGTGGCATGATCTCGGCTCACTGGC
B29: NRC3_wobSeed74_DR3_T21A_o1 (dsDNA)
DNA 1: GCTCTAGTTGGTCACGGAGGACACACACGACGGGTAGCGATTGACAGCGTAGAATGAAGG
DNA 2: CCTTCATTCTACGCTGTCAATCGCTACCCGTCGTGTGTGTCCTCCGTGACCAACTAGAGC
B30: NRC3_wobSeed74_DR3_A23C_o1 (dsDNA)
DNA 1: B29 DNA 1 with A21T, A23C
DNA 2: B29 DNA 2 with T38G, T40A
B31: NRC3_wobSeed102_DR4_G19A_o1 (dsDNA)
DNA 1: GCCCTAGCAGGCCAATCTAGGTCACTCAAGGCTTGAGCGATTGACAGCGTAGAATGAAGG
DNA 2: CCTTCATTCTACGCTGTCAATCGCTCAAGCCTTGAGTGACCTAGATTGGCCTGCTAGGGC
B32: NRC3_wobSeed100_DR4_T22C_o1 (dsDNA)
DNA 1: GCCCTACTGGGCCACGAAAGGCCATTGATTCAGTGAGCGATTGACAGCGTAGAATGAAGG
DNA 2: CCTTCATTCTACGCTGTCAATCGCTCACTGAATCAATGGCCTTTCGTGGCCCAGTAGGGC
B33: NRC3_random_hg19_234_o1 (dsDNA)
DNA 1: GCTAACTGGCACCTTTGGGAACTACATGTTTCCTGTGCGATTGACAGCGTAGAATGAAGG
DNA 2: CCTTCATTCTACGCTGTCAATCGCACAGGAAACATGTAGTTCCCAAAGGTGCCAGTTAGC

biological target: LXRa:RXRa (Homo sapiens, UniProt Q13133;P19793 full;full); assay: no ligand; PBM; 270 nM : 90 nM RXRa; PBS pH 7.4, 2% milk, 0.02% Triton X-100, 1 mM DTT, BSA, 0.4 mg/ml salmon testes DNA; conditions: tags: His kept;His cleaved; copies: 1;1; label: surface-attached array probe
Method in brief: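 Custom Agilent 4×180K protein-binding microarrays carried double-stranded probes. Their 34-nt variable regions held direct-repeat seeds, single-nucleotide variants, half-site ablations and random human genomic background sequences. Arrays were incubated 1 h with ligand-free nuclear receptor dimers in PBS pH 7.4, 2% milk, 0.02% Triton X-100, 1 mM DTT, 0.2 mg/mL BSA and 0.4 mg/ml salmon testes DNA. Antibodies against each partner (one per run) detected binding, and scanned fluorescence was regression-normalized. Binding z-scores use random background probes as reference.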

Sequence of LXRa:RXRa (Q13133 whole entry, chain 1 of 2): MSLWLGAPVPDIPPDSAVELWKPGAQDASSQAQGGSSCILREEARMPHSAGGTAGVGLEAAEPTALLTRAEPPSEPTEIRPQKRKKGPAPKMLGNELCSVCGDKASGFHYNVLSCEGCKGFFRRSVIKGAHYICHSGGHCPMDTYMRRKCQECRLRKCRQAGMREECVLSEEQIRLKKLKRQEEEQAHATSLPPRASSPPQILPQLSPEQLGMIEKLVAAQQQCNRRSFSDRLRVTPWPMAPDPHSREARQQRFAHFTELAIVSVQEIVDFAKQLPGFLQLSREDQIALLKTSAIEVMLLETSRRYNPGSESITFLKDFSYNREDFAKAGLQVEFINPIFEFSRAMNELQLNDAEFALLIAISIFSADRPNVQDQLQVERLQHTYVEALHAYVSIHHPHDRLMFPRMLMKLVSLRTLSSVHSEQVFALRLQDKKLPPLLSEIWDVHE
Sequence of LXRa:RXRa (P19793 whole entry, chain 2 of 2): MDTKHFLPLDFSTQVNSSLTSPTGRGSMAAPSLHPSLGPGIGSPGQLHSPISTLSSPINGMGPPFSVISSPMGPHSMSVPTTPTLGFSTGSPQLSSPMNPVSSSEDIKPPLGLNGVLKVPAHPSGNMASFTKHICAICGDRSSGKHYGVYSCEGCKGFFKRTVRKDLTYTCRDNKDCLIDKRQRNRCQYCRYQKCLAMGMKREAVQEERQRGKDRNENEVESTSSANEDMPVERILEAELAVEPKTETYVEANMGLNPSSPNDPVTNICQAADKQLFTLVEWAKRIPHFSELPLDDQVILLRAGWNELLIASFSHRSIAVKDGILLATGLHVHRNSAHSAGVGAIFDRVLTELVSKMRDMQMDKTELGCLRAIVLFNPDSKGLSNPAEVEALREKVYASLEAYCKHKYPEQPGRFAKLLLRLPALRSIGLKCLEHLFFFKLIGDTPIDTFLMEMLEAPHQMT

First: B1
Second: B2
The binding signal of the first is lower: 0.13 PBM z-score against 500 random probes for the first, 0.22 PBM z-score against 500 random probes for the second.

Compared with B3, B4 is lower in binding signal: 3.1 PBM z-score against 500 random probes for the first, 0.31 PBM z-score against 500 random probes for the second.

Compared with B5, B6 is lower in binding signal: 0.19 PBM z-score against 500 random probes for the first, -0.15 PBM z-score against 500 random probes for the second.

Compared with B7, B8 is lower in binding signal: 3.08 PBM z-score against 500 random probes for the first, 0.38 PBM z-score against 500 random probes for the second.

Going from B9 to B10, the binding signal falls from 3.15 PBM z-score against 500 random probes to 0.44 PBM z-score against 500 random probes.

First: B11
Second: B12
The binding signal of the first is higher: 0.49 PBM z-score against 500 random probes for the first, 0.33 PBM z-score against 500 random probes for the second.

First: B13
Second: B14
The binding signal of the first is higher: 0.34 PBM z-score against 500 random probes for the first, 0.27 PBM z-score against 500 random probes for the second.

Going from B15 to B16, the binding signal falls from -0.07 PBM z-score against 500 random probes to -0.49 PBM z-score against 500 random probes.

First: B17
Second: B18
The binding signal of the first is higher: 3.02 PBM z-score against 500 random probes for the first, 0.24 PBM z-score against 500 random probes for the second.

First: B19
Second: B20
The binding signal of the first is lower: -0.25 PBM z-score against 500 random probes for the first, 3.06 PBM z-score against 500 random probes for the second.

Compared with B21, B22 is lower in binding signal: 3.17 PBM z-score against 500 random probes for the first, -0.4 PBM z-score against 500 random probes for the second.

First: B23
Second: B24
The binding signal of the first is higher: -0.03 PBM z-score against 500 random probes for the first, -0.16 PBM z-score against 500 random probes for the second.

First: B25
Second: B26
The binding signal of the first is higher: 0.43 PBM z-score against 500 random probes for the first, 0.37 PBM z-score against 500 random probes for the second.

Going from B27 to B28, the binding signal falls from 0.05 PBM z-score against 500 random probes to -0.46 PBM z-score against 500 random probes.

Going from B29 to B30, the binding signal falls from 0.43 PBM z-score against 500 random probes to 0.41 PBM z-score against 500 random probes.

Going from B31 to B32, the binding signal falls from 3 PBM z-score against 500 random probes to -0.05 PBM z-score against 500 random probes.

For B33, the binding signal was -0.32 PBM z-score against 500 random probes.

Source: article PMC6555819, “Comprehensive study of nuclear receptor DNA binding provides a revised framework for understanding receptor specificity”
